The values that follow come from US20050256058A1.

Square brackets hold non-standard residues; d marks the D form. * marks the point of attachment. Hydrocinnamoyl = O=C(CCc1ccccc1)*; CH:CH‑COOEt = CCOC(=O)/C=C/*; AOrn = not defined here; Cbz = O=C(OCc1ccccc1)*

What all share (test): cell-based or functional assay
In experiment [1] the target is T1, schistosome legumain SmAE (Schistosoma mansoni asparaginyl endopeptidase) (Schistosoma mansoni), P09841.
T1 chain: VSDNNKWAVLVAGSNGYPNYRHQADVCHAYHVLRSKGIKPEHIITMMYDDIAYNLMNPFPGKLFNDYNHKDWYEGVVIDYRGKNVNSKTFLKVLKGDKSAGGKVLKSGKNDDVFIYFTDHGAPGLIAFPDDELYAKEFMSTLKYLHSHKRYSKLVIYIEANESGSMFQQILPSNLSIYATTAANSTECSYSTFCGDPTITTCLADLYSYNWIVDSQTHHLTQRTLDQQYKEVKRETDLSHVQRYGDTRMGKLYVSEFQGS

In the next experiment the target is T2, Clostripain, P09870.
T2 chain: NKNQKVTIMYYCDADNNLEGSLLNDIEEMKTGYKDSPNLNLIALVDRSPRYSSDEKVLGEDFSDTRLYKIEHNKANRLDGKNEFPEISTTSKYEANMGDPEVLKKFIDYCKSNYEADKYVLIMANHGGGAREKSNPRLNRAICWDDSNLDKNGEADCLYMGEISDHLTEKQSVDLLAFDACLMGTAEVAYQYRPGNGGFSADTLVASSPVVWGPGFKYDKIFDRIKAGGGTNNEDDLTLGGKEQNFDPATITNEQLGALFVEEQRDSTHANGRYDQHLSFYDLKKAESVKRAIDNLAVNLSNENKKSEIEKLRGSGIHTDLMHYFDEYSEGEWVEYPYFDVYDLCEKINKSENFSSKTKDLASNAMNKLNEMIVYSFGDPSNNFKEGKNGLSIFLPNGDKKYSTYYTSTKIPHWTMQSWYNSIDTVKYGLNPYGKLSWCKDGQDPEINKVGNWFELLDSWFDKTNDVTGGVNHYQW

In another experiment the target is Gingipain K.
For the next experiment, the target named is Gingipain R.

Consider AAN (modifications not checked) [Cbz-Ala-Ala-AAsn-CH═CH-3-Py], for which the IC50 – broadly, the point on the concentration scale where inhibition reaches its midpoint – in experiment [1] was greater than 2000 nM.

For AAN (modifications not checked) [Biotinyl-Ala-Ala-AAsn-CH═CH-COOEt], in experiment [1], the IC50 is 10 nM.

On to AAN (modifications not checked) [Cbz-Ala-Ala-AAsn-CH═CH-CON(CH3)CH2CH2Ph], for which the IC50 in experiment [1] came out at 600 nM.

For LK (modifications not checked) [PhPr-Leu-ALys-CH═CH-CON(Bzl)-p-CH2C6H4F], the k2 in the experiment with Clostripain, P09870 came to 13800 M⁻¹ s⁻¹; with Gingipain K, 801000 M⁻¹ s⁻¹; with Gingipain R, 75 M⁻¹ s⁻¹.

AAN (modifications not checked) [Cbz-Ala-Ala-AAsn-CH═CH-CO-tetrahydroquinoline]: in experiment [1], the IC50 worked out at 70 nM.

In experiment [1], AAN (modifications not checked) [Cbz-Ala-Ala-AAsn-CH═CH-CONHPh] came in with a half-inhibitory concentration (IC50) of 700 nM.

As for LR (modifications not checked) [PhPr-Leu-AArg-CH═CH-CON(CH2Ph)2], the k2 in the experiment with Clostripain, P09870 is 474000 M⁻¹ s⁻¹; with Gingipain R, 804000 M⁻¹ s⁻¹.

Regarding LK (modifications not checked) [PhPr-Leu-ALys-CH═CH-CON(4H-quinoline)], the k2 with Clostripain, P09870 was 326 M⁻¹ s⁻¹; with Gingipain K, 252000 M⁻¹ s⁻¹; with Gingipain R it was 73 M⁻¹ s⁻¹.

As for Hydrocinnamoyl-Leu-[AOrn]-{CH:CH‑COOEt} (reading uncertain; also: printed as PhPr-Leu-AOrn-CH═CH-COOEt) [PhPr-Leu-AOrn-CH═CH-COOEt], the k2 in the experiment with Clostripain, P09870 came out at 788 M⁻¹ s⁻¹; in the experiment with Gingipain K it was 927000 M⁻¹ s⁻¹; with Gingipain R it was 32 M⁻¹ s⁻¹.

Take LK (modifications not checked) [PhPr-Leu-ALys-CH═CH-CON(Me)CH2Ph]: the k2 worked out at 6000 M⁻¹ s⁻¹ with Clostripain, P09870; 1.36e+06 M⁻¹ s⁻¹ with Gingipain K; 79 M⁻¹ s⁻¹ with Gingipain R.

Take LK (modifications not checked) [PhPr-Leu-ALys-CH═CH-CON(Bzl)CH2-2-naphthyl]: the k2 in the experiment with Clostripain, P09870 turned out to be 17500 M⁻¹ s⁻¹; with Gingipain K, 811000 M⁻¹ s⁻¹; with Gingipain R, 98 M⁻¹ s⁻¹.

On to Hydrocinnamoyl-Leu-[AOrn]-{CH:CH‑CONHCH2Ph} (reading uncertain) [PhPr-Leu-AOrn-CH═CH-CONHCH2Ph], for which the k2 is 24700 M⁻¹ s⁻¹ with Gingipain K and 71 M⁻¹ s⁻¹ in the experiment with Gingipain R.

Consider AAN (modifications not checked) [Cbz-Ala-Ala-AAsn-CH═CH-CON(nBu)2], for which the IC50 in experiment [1] worked out at 550 nM.

Take AAN (modifications not checked) [Cbz-Ala-Ala-AAsn-CH═CH-CONH-Bzl-4-F]: the IC50 in experiment [1] is 800 nM.

Regarding LK (modifications not checked) [PhPr-Leu-ALys-CH═CH-COOCH2Ph], the k2 with Clostripain, P09870 was found to be 20500 M⁻¹ s⁻¹; with Gingipain K it was 2.51e+06 M⁻¹ s⁻¹; with Gingipain R, 632 M⁻¹ s⁻¹.

For AAN (modifications not checked) [Cbz-Ala-Ala-AAsn-CH═CH-CO-Pip], the half-inhibitory concentration (IC50) in experiment [1] came to 1000 nM.

On to AAN (modifications not checked) [Cbz-Ala-Ala-AAsn-CH═CH-COOBzl], for which the IC50 in experiment [1] was determined as 38 nM.

Consider AAN (modifications not checked) [Cbz-Ala-Ala-AAsn-CH═CH-CO-MePhe-N(CH3)CH2CH2Ph], for which the IC50 in experiment [1] worked out at 750 nM.

Turning to AAN (modifications not checked) [Cbz-Ala-Ala-AAsn-CH═CH-CON(Bzl-4-OMe)Bzl], the IC50 in experiment [1] came out at 90 nM.

With AAN (modifications not checked) [Cbz-Ala-Ala-AAsn-CH═CH-CONHBzl], the IC50 in experiment [1] is 1000 nM.

For LK (modifications not checked) [PhPr-Leu-ALys-CH═CH-COOEt], the k2 with Clostripain, P09870 worked out at 40800 M⁻¹ s⁻¹; in the experiment with Gingipain K, 3.28e+06 M⁻¹ s⁻¹; with Gingipain R, 289 M⁻¹ s⁻¹.

Consider LK (modifications not checked) [PhPr-Leu-ALys-CH═CH-CON(CH2-1-naphthyl2], for which the k2 in the experiment with Clostripain, P09870 amounted to 2250 M⁻¹ s⁻¹; with Gingipain K, 1.89e+06 M⁻¹ s⁻¹; with Gingipain R, 214 M⁻¹ s⁻¹.

AAN (modifications not checked) [Cbz-Ala-Ala-AAsn-CH═CH-CON(Bzl)Ph] had an IC50 in experiment [1] of 70 nM.

As for LR (modifications not checked) [PhPr-Leu-AArg-CH═CH-COOEt], the k2 with Clostripain, P09870 is 69600 M⁻¹ s⁻¹; in the experiment with Gingipain K, 1580 M⁻¹ s⁻¹.

On to Cbz-Ala-Ala-[AAsn]-{CH:CH‑CON(Bzl)‑1‑CH2‑Napth} [Cbz-Ala-Ala-AAsn-CH═CH-CON(Bzl)-1-CH2-Napth], for which the IC50 in experiment [1] is 62 nM.

Regarding LK (modifications not checked) [PhPr-Leu-ALys-CH═CH-CON(Me)CH2-1-naphthyl], the k2 in the experiment with Clostripain, P09870 is 639 M⁻¹ s⁻¹; with Gingipain K, 975000 M⁻¹ s⁻¹; in the experiment with Gingipain R it was 576 M⁻¹ s⁻¹.

Molecule AAN (modifications not checked) [Cbz-Ala-Ala-AAsn-CH═CH-CON(CH3)Ph] came in with an IC50 in experiment [1] of 60 nM.

For Cbz-Ala-Ala-[AAsn]-{CH:CH‑CON(CH3)Bzl} [Cbz-Ala-Ala-AAsn-CH═CH-CON(CH3)Bzl], in experiment [1], the IC50 was 55 nM.

As to LK (modifications not checked) [PhPr-Leu-ALys-CH═CH-CONHCH2Ph], the k2 with Clostripain, P09870 was determined as 1050 M⁻¹ s⁻¹; with Gingipain K it was 236000 M⁻¹ s⁻¹; with Gingipain R it was 20 M⁻¹ s⁻¹.

In experiment [1], AAN (modifications not checked) [Cbz-Ala-Ala-AAsn-CH═CH-2-furyl] yielded an IC50 greater than 2000 nM.

LR (modifications not checked) [PhPr-Leu-AArg-CH═CH-CONHCH2Ph]: the k2 with Clostripain, P09870 was 287000 M⁻¹ s⁻¹; with Gingipain R it was 555000 M⁻¹ s⁻¹.

For Cbz-Ala-Ala-[AAsn]-{CH:CH‑CONHCH2CH2Ph} [Cbz-Ala-Ala-AAsn-CH═CH-CONHCH2CH2Ph], the IC50 in experiment [1] was 600 nM.

Regarding AAN (modifications not checked) [Cbz-Ala-Ala-AAsn-CH═CH-CON(Bzl-4-F)Bzl], the IC50 in experiment [1] is 60 nM.

Molecule Cbz-Ala-Ala-[AAsn]-{CH:CH‑COOEt} [Cbz-Ala-Ala-AAsn-CH═CH-COOEt] came in with an IC50 in experiment [1] of 31 nM.

As for AAN (modifications not checked) [Cbz-Ala-Ala-AAsn-CH═CH-CON(CH2-2-furyl)2], the IC50 in experiment [1] came out at 900 nM.

For AAN (modifications not checked) [Cbz-Ala-Ala-AAsn-CH═CH-CO-(4-Ph-Py)], the IC50 in experiment [1] came to 750 nM.

In the case of AAN (modifications not checked) [Cbz-Ala-Ala-AAsn-CH═CH-CO-isoindoline], the IC50 in experiment [1] is 300 nM.

Regarding Cbz-Ala-Ala-[AAsn]-{CH:CH‑CON(Bzl)2} [Cbz-Ala-Ala-AAsn-CH═CH-CON(Bzl)2], in experiment [1], the IC50 is 45 nM.

Turning to Hydrocinnamoyl-Leu-[AOrn]-{CH:CH‑CON(CH2Ph)2} (reading uncertain) [PhPr-Leu-AOrn-CH═CH-CON(CH2Ph)2], the k2 was found to be 541 M⁻¹ s⁻¹ with Clostripain, P09870; 61600 M⁻¹ s⁻¹ in the experiment with Gingipain K; 541 M⁻¹ s⁻¹ with Gingipain R.

In experiment [1], Cbz-Ala-Ala-[AAsn]-{CH:CH‑CON(Bzl)‑2‑CH2‑Napth} [Cbz-Ala-Ala-AAsn-CH═CH-CON(Bzl)-2-CH2-Napth] returned an IC50 of 70 nM.

In experiment [1], Cbz-Ala-Ala-[AAsn]-{CH:CH‑CO‑indoline} [Cbz-Ala-Ala-AAsn-CH═CH-CO-indoline] came in with an IC50 of 70 nM.

As for AAN (modifications not checked) [Cbz-Ala-Ala-AAsn-CH═CH-CO-tetrahydroisoquinoline], the IC50 in experiment [1] is 200 nM.

For LK (modifications not checked) [PhPr-Leu-ALys-CH═CH-CON(CH2Ph)2], the k2 in the experiment with Clostripain, P09870 was found to be 20000 M⁻¹ s⁻¹; with Gingipain K, 2.13e+06 M⁻¹ s⁻¹; with Gingipain R, 65 M⁻¹ s⁻¹.

Turning to Hydrocinnamoyl-Ala-[AOrn]-{CH:CH‑COOEt} (reading uncertain) [PhPr-Ala-AOrn-CH═CH-COOEt], the k2 came out at 632000 M⁻¹ s⁻¹ with Gingipain K and 18 M⁻¹ s⁻¹ with Gingipain R.
